Assay type in all cases: physicochemical
A short description of data set [1]: Dynamic light scattering of hemoglobin. The note with it: heated at 60° C. for 20 min without red laser light. Here is the method:
FIG. 4 represents the dynamic light scattering pattern of protein hemoglobin in the presence and absence of red laser light at 60° C. The hydrodynamic diameter of hemoglobin at 25° C. is 5.6 nm. When this protein solution was heated at 60° C. without red laser light for 20 min, the hydrodynamic diameter increases to 4801.0 nm. However, in the presence of red laser light the diameter increases to only 255.0 nm.

Data set [2] in a line: Thermal aggregation of hemoglobin (absorption/scattering at 360 nm). The settings on record: 0.1 mg/ml, 60° C., 20 min, He-Ne laser 632.8 nm, 0.63 watts/cm^2. An excerpt:
(§1) In this Example, the effects of light energy on the aggregation of a labile biomolecule in aqueous solution were examined. The device included a heating element and a laser, as depicted in FIG. 2. The laser operated at 632.8 nm, in the red portion of the spectrum, with a power density of 0.63 watts/cm^2. The 180 degree scattering at 360 nm (in terms of OD at 360 nm) was taken to measure the extent of aggregation because it is well-known that this scattering is a measure of the propensity of a protein to form aggregate. Aggregation of proteins of the reference samples was taken as 100% and the aggregation of laser-treated proteins in the test samples was calculated relative to the 100% aggregation of the reference samples.
Thermal aggregation of hemoglobin. Hemoglobin was purchased from Sigma-Aldrich (St. Louis, Mo.) and a 0.5 mg/ml stock solution was prepared by mixing with 100 mM phosphate buffer solution of pH 7.2. The aggregation of a 0.1 mg/ml hemoglobin solution was observed by measuring the absorption of radiation of 360 nm wavelength with a time duration of 20 min in a Perkin Elmer spectrophotometer at 60° C. Test samples were irradiated with He—Ne laser having power density is 0.63 watts/cm^2 and operating at a wavelength 632.8 nm. A control sample was subjected to identical conditions expect laser irradiation was not performed. […]

Data set [3] can be described thus: Dithiothreitol induced aggregation of insulin (absorption at 360 nm). The note with it: 0.1 mg/ml, DTT 20 mM, 40° C., He-Ne laser 632.8 nm, 0.63 watts/cm^2.
From the text: as §1
Dithiothreitol induced aggregation of insulin. Insulin was purchased from ICN and a stock solution of insulin (0.5 mg/ml) was prepared by mixing with 100 mM phosphate buffer of pH 7.2. Disulphide linkages of insulin (0.1 mg/ml) were reduced by dithiothreitol (DTT, 20 mM), which leads aggregation of insulin at 40° C. This aggregation of protein was measured by absorption at 360 nm after heat treatment at 40° C. in a Perkin Elmer spectrophotometer. Aggregation of insulin was measured in the presence and in the absence of laser light. Test samples were irradiated with a He—Ne laser having power density is 0.63 watts/cm^2 and operating at a wavelength 632.8 nm. […]

Data set [4] in a line: Thermal aggregation of citrate synthase (OD at 360 nm). The note with it: for change in aggregation upon laser exposure: FIG. 5.
From the text: as §1
Thermal Aggregation of Citrate Synthase. Citrate synthase was purchased from Sigma-Aldrich and a 0.5 mg/ml stock solution was prepared by mixing with 100 mM phosphate buffer solution of pH 7.2. Citrate synthase was readily converted to its aggregated state from a native state at 45° C. The aggregation profile of the protein (0.1 mg/ml) was measured by measuring optical density (OD) at 360 nm in a Perkin Elmer spectrophotometer in 100 mM phosphate buffer of pH 7.2. Test samples were irradiated with a He—Ne laser having power density is 0.63 Watt/cm^2 and operating at a wavelength 632.8 nm. A control sample was subjected to identical conditions expect that laser irradiation was not performed. The results are shown in FIG. 3 and indicate that irradiation with laser light reduced the formation of protein aggregates by about 40% compared to an non-irradiated control sample.
A comparative study showing the effect of the power of the red laser on the aggregation of citrate synthase was conducted. Thermal aggregation of citrate synthase was determined by measuring absorption of radiation of 360 nm wavelength at 45° C. Aggregation of control samples (in absence of laser treatment) was considered as 100% aggregation while aggregation of the treated protein of the test samples was calculated relative to the 100% aggregation of the control samples. […] Thus, increasing the energy input to the test samples beyond that needed to increase the activation energy for unfolding the protein appears to generate heat energy that increases aggregation. As such, suitable methods for preventing protein aggregation use a low-power red laser.

Consider hemoglobin, for which, in data set [1], the hydrodynamic diameter amounted to 4801.0 nm. The “reduction of formation of hemoglobin aggregates compared to non-irradiated control” value in data set [2] is on record as “about 25%”.
In the case of insulin, the “reduction of formation of insulin aggregates compared to non-irradiated control” value in data set [3] is recorded as “about 10%”.

B1: citrate synthase (protein, UniProt P00889 28-464, looked up)
Citrate synthase, …: ASSTNLKDILADLIPKEQARIKTFRQQHGNTVVGQITVDMMYGGMRGMKGLVYETSVLDPDEGIRFRGYSIPECQKMLPKAKGGEEPLPEGLFWLLVTGQIPTEEQVSWLSKEWAKRAALPSHVVTMLDNFPTNLHPMSQLSAAITALNSESNFARAYAEGIHRTKYWELIYEDCMDLIAKLPCVAAKIYRNLYREGSSIGAIDSKLDWSHNFTNMLGYTDAQFTELMRLYLTIHSDHEGGNVSAHTSHLVGSALSDPYLSFAAAMNGLAGPLHGLANQEVLVWLTQLQKEVGKDVSDEKLRDYIWNTLNSGRVVPGYGHAVLRKTDPRYTCQREFALKHLPHDPMFKLVAQLYKIVPNVLLEQGKAKNPWPNVDAHSGVLLQYYGMTEMNYYTVLFGVSRALGVLAQLIWSRALGFPLERPKSMSTDGLIKLVDSK
notes: a beta sheet-rich enzyme which readily aggregates by thermal treatment at 45° C; purchased from Sigma-Aldrich
B1: the “reduction of formation of protein aggregates compared to non-irradiated control” value in data set [4] (0.1 mg/ml, 45° C., He-Ne laser 632.8 nm, 0.63 Watt/cm^2) is on record as “about 40%”. The “aggregation relative to control samples (100%)” value in data set [4] (45° C., red laser 15 mW, 1.9 watts/cm^2) was “approximately 145%”; in data set [4] (45° C., red laser 632.8 nm, 5 mW, 0.63 watts/cm^2) it was 60%. In addition, the “change in aggregation upon laser exposure” value in data set [4] (high power (15 mW) red laser) is reported as “increase in aggregation”; in data set [4] (low power (5 mW) red laser), “decrease in the aggregation”.

Values taken from patent US20110250670A1, “LIGHT ENERGY-INDUCED STABILITY OF BIOMATERIALS” (University of Calcutta, priority 2010, published 2011).
